The numbers were not newly measured in publication PMC9696605 (Viruses, 2022), which cites them from elsewhere.

The target in the data set is Fyn-SH3 (Homo sapiens, UniProt P06241). Conditions: phosphorylated MBP.
Chain of Fyn-SH3 (P06241 with tags, fused parts or gaps): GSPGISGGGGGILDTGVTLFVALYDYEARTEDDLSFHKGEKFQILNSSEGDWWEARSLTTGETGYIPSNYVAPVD

B1: phospho-MBP: phosphorylated myelin basic protein (protein, UniProt P02687 1-169, looked up)
Myelin basic protein: AAQKRPSQRSKYLASASTMDHARHGFLPRHRDTGILDSLGRFFGSDRGAPKRGSGKDGHHAARTTHYGSLPQKAQGHRPQDENPVVHFFKNIVTPRTPPPSQGKGRGLSLSRFSWGAEGQKPGFGYGGRASDYKSAHKGLKGHDAQGTLSKIFKLGGRDSRSGSPMARR
modifications: phosphorylated
notes: phosphorylated myelin basic protein
Turning to B1, the “Effect of MBP phosphorylation on interaction with Fyn-SH3” value is “phosphorylation weakens the interaction”.
